# Measurements taken from the nanobody polyreactivity screen of Harvey et al. (2022).
# Experiment: yeast display, Sf9 membrane polyspecificity reagent, FACS + sequencing; frameworks hold sequencing errors
# In short: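 Nanobodies from a synthetic yeast display library (Saccharomyces cerevisiae BJ5465), induced 36–48 hours with galactose, were stained 1 hour at 4 °C with 10% biotinylated, detergent-solubilized Sf9 membrane reagent, enriched on streptavidin microbeads, then FACS-sorted. Anti-HA (expression) and streptavidin (reagent binding) fluorescence set low and high (top ~1%) gates. Polyreactivity labels come from the gate of origin. Genes were colony-PCR amplified, MiSeq 2 × 250 sequenced and filtered by CDR length.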
row,Sequence,polyreactivity (PSR sort gate)
1,QVQLVESGGGLVQAGGSLRLSCAATGFTFHHYVMGWYRHAHGKEREFVASIRWRGGSTYYADSVKGRFTISRDNAKNTVYLQMNSLKPEDTAVYYCAADSFTYWSWLHGYWGQGTQVTVSS,high polyreactivity
2,QVQLVESGGGLVQAGGSLRLSCAATGFTFRWYAMGWYRQAPGKERELVAAITSDDNTYYADSVKGRFTISRDNAKNTVYLQMNSLKPEDTAVYYCAAEYADYWTYIMGYWGQGTQVTVSS,low polyreactivity
3,QVQLVESGGGLVQAGGSLRLSCAATGHTFHGYAMGWYRPAPGKERELVAAITSTGGSTHYADSVKGRFTISRDNAKNTVYLQMNSLKPEDTAVYYCAKRSYGLTRAYSAGNYWGQGTQVTVSS,low polyreactivity
4,QVQLVESGGGLVQAGGSLRLSCAATGIIFSWYDMGWYRQAPGKERELVAAITSGGSTYYADSVKGRFTISRDNAKNTVYLLMNSLKPEDTAVYYCNRYSYLFPYYWKYDYCGQGTQVTVSS,high polyreactivity
5,QVQLVESGGGLVQAGGSLRLSCAATGITFYINAMGSYRQAPGKERELVAVIDSRGSSTFYADSVKGRFTISLDYAKNTVYLQMNSLKPEDTAVYYCAVEGYPGRYRDPGDLYYYWGQGTQVTVSS,low polyreactivity
6,QVQLVESGGGLVQAGGSLRLSCAATGRIFAYNTMGWYRQAPGKERELVAVITSGGSTNYADSVKGRFTISRDNAKNTVYLQMNSLNPEDTAVYYCAKRPYGRSGGSRYDYWGQGTQVTVSS,high polyreactivity
7,QVQLVESGGGLVQAGGSLRLSCAATGRIFDYNVMGWSRQAPGKERELVADINGCGGRTNYADSVKGRFTISRDNAKNSVYLQMNSLKPEDTAVYDCAAEWYSYGARSSYGGSRNDYWGQGSQVTVSS,low polyreactivity
8,QVQLVESGGGLVQAGGSLRLSCAATGRIFGQNAMGWYRQAPGKERELVAAINWSVGSTYYADSVKGRFTISRDNAKNTVYLQMNSLKPEDTGVYYCAAGNLYYAEYDYWGQGTQVTVSS,low polyreactivity
9,QVQLVESGGGLVQAGGSLRLSCAATGRIFSIYAMGWYRQAPGKERELVAAISGGGSTYYADSVKGRFTISRDNAKNTVYLQMNSLKPEDTAVYYCAALQSYYRYFGYDYWGQGTQVTVSS,low polyreactivity
10,QVQLVESGGGLVQAGGSLRLSCAATGRIFTRNAMGWYRQAPGKERELVAAISYSGGTTYYADSVKGRFTISRDNAKITVYLQMNSLKPDDTAVYDCAALRPTQRYFTYDYWGHGTQVTVSS,high polyreactivity
11,QVQLVESGGGLVQAGGSLRLSCAATGRIFWDYAMGWYRQAPGKERELVAANAWGSGRTYYADSVKGRFTISRDNAKNTVNLQMNSLKPEDTAVYYCHAVRYLFIYPRYDYWGQGTQVTVSS,high polyreactivity
12,QVQLVESGGGLVQAGGSLRLSCAATGRIFYPYAMGWYRQAPGKERELVATIRWRGGSTRYADSVKGRFTISRDNAKNTVFLQMNSLKPEDTAVYYCAAGFKVEPTDLYYWGQGTQVTVSS,high polyreactivity
13,QVQLVESGGGLVQAGGSLRLSCAATGRTIHGYAMGWYRQAPGKERELVAAITGTGGRTYYADSVKGRFTISRDNAKNTVYLQMNSLKPEDTAVYYCAARPWIKSGYWGQGTQVTVSS,high polyreactivity
14,QVQLVESGGGLVQAGGSLRLSCAATGSIFIRYAIGWYRHEPGKERELVAAITSTGSTSYADSVKWRFTISRDNAKNTVYLQMNSLKPEDTAVYYCAAAGFWHGYFGYGYWGQGTQVTVSS,low polyreactivity
15,QVQLVESGGGLVQAGGSLRLSCAATGSIFNVNAMGWYRQAPGKERELVAAISSGGDTYYADSVKGRFTISRDNAKNTVYIQMNSLQPEDTAVYYCAKQSYTLYTLLYDYWGQGTQVTVSS,low polyreactivity
16,QVQLVESGGGLVQAGGSLRLSCAATGSIFRRNAMGGYRQAPGKERELVAAISSNGGSTYYADSVKGRFTISRDNAKNTVYLQMNSLKPEDTAVYYCNALGRVRYPFDYWGQGTQVTVSS,high polyreactivity
17,QVQLVESGGGLVQAGGSLRLSCAATGSNLIYVMGGYRQAPGKERELVASITFSGGSTYYADSVKGRFTISRDNAKNTVYLQMNRLKPEDTAVYYCAAVPLWDYKFFYYMLYDYWGQGTQVTVSS,low polyreactivity
18,QVQLVESGGGLVQAGGSLRLSCAAWSIFYLNAMGLYRQAPGKERELVAAISWGGGSTNYADSVKGRFTISRDNAKNTVYLQMNSLKPEDTAVYYCARTPESLSAREFNYWGQGTEVTVSS,low polyreactivity
19,QVQLVESGGGLVQAGGSLRLSCAAYGFFFPFYTMGWYRQAPGKERELVAAIRYSAGRTYYADSVKGRFTISRDNAKNTVYLQMNSLKPEDTAVYYCAADAIYSRAWGFDYWGQGTQVTVSS,high polyreactivity
20,QVQLVESGGGLVQAGGSLRLSCAAYGFISPSYAMGWYRQAPGKERELVAAIRSSDGSTYYADSVKGRFTISRDNAKNTVYLQMNSLKPEDTAVYYCAARRVTSPFGSDSWGQGTQVTVSS,low polyreactivity

row,Sequence,polyreactivity (PSR sort gate)
1,QVQLVESGGGLVQAGGSLRLSCAAYGFIVPAYAMGWYRQAPGKERELVAAISWDGGSTYYADSVKGRFTISRDNAKNTVYLQMNSLKPEDTPVYYCAATFFADTWYGWYDYWGQGTQVTVSS,high polyreactivity
2,QVQLVESGGGLVQAGGSLRLSCAAYGFTFAFYALGRYRQSPGKERELVAAITGSGGSTYYADSVKGRFTISRDNSKNTVYLQMNSLKPEDTAVYYCNTYTYYSRMDYWGQGTQVTVSS,high polyreactivity
3,QVQLVESGGGLVQAGGSLRLSCAAYGGIFPSYAMGWYRQAPGKERELVAAISRTGGSTYYADSVKGRFTISRDNAKNTVYLQMNSLKPEDTAVYYCAAEWAWYLGVYRRDRMYWGQGTQVTVSS,high polyreactivity
4,QVQLVESGGGLVQAGGSLRLSCAAYGINFLQYAMGWYRQAPGKDRELVAAITRRGDRTYYADSVKGRFTISRDNAKYTVYLQMISLKPEDTAVYYCAASYWYRDYYYWGQGTQVTVSS,high polyreactivity
5,QVQLVESGGGLVQAGGSLRLSCAAYGLTFRVYTMGWYRQAPGKERELVAAISTDGGSTYYADSVKGRFTISRDNAKNTVYFQMNSLKPEDTAVYYCAAKWYSYRWTQFDYWGQGTQVSVSS,high polyreactivity
6,QVQLVESGGGLVQAGGSLRLSCAAYGNIFHRNAMGWYRKAPGKESEVVAAISWSGGSTYYADSVKGRFTISRDNAKNTVYLQMNSLKPEDTAVYYCNAYYYYRFKQSHPGLRSYYWGQGTQVTVSS,high polyreactivity
7,QVQLVESGGGLVQAGGSLRLSCAAYGNIIYYNAMGWYRQATGKERELVASITWSGGSTYYADSVKGRFTISRDNAKNTVYLQMNSLKPEDTAVYYCAAGYSPPKPYSGGYYYWGQGTQVTVSS,low polyreactivity
8,QVQLVESGGGLVQAGGSLRLSCAAYGRIFSRNAMGWYRQAPGKERELVAAITSSGGSTYYADSVKGRFTISRDNAKNTVYLQMNSLKPEDTAVYYCNAVSRWWPAGFDYWGQGTQVTVSS,high polyreactivity
9,QVQLVESGGGLVQAGGSLRLSCAAYGRIFSYYAMGWYRQAPGKERELVATINSGGSTNYADSVKGRFTISRDNAKNTVYLQMNSLKPEDTAVYYCDASPVWWYDYWGQGTQVTVSS,low polyreactivity
10,QVQLVESGGGLVQAGGSLRLSCAAYGRILRYYAMGWYRQAPGKERELVASITSGGSTYYADSVKGRFTISRDNAKNTVYLQMNSLKPEDTAVYYCAARNIYRVDLSYYAYDYWGQGTQVTVSS,high polyreactivity
11,QVQLVESGGGLVQAGGSLRLSCAAYGRTFIVNTMGWYRQAPGKERQLVAAITARGGRTYYADSVKGRFTISRDNAKNTVYLQMNSLKPEDTAVYYCNARTPPREAERYYWGQGTQVTVSS,low polyreactivity
12,QVQLVESGGGLVQAGGSLRLSCAAYGRTFRTNAMGWYRQAPGKERELVAAISTGGGITNYADSVKGRFTISRDNAKNTVYLQMNSLKPEDTAVYYCNADIYTWFQIGGYQYDYWGQGTQVTVSS,low polyreactivity
13,QVQLVESGGGLVQAGGSLRLSCAAYGRTFSHYAMGWYRQAPGKERELVAGITSGGRTYYADSVKGRFTISRDNAKNTVYLQMNSLKPEDTEVYYCAIRRYTAIWYGYWGQGTQETVSS,high polyreactivity
14,QVQLVESGGGLVQAGGSLRLSCAAYGRTLRPYAMGWYRQAPGKERELVASIRRDGSTYADSVKGRYTISLDNAKNTVYLQMNSLKPEDTAVYYCAAARGYPLSYWGQGTQVTVSS,low polyreactivity
15,QVQLVESGGGLVQAGGSLRLSCAAYGSIFDHYAMVWNRQAPGKERELVAAITYSDGSTYYADSVKGRFTISRDNAKNTVYLQMKSLKPEDTAVYYCAAYPRGSQRYNYWGQGTQVTVSS,high polyreactivity
16,QVQLVESGGGLVQAGGSLRLSCAAYGSIFDVHAMGWNRQAPGKERELVAAISDSGGSTYYADSVKGRFTISRDNAKNTVYLLMKSLKPDDTAVYYCNADWSWFNYYDFDYWGQGTHVTVSS,low polyreactivity
17,QVQLVESGGGLVQAGGSLRLSCAAYGSIFSTYAMGWYRQAPGKERELVAAISRSGGSTYYADSVKGRFTISRDNAKNTVYLQMNSLKPEDTAVYYCAKVGRRQRYDYWGQGTQVTVSS,high polyreactivity
18,QVQLVESGGGLVQAGGSLRLSCAAYGSIFWYYAMGWYRQAHGKERELVAAISASGSSTYYADSVKGRLTISRDNAKNPVYLQMNSLNPEDTAVYYCAGTYILYNDWLYHYFPEEYDSWGQGTQVTVSS,low polyreactivity
19,QVQLVESGGGLVQAGGSLRLSCAAYGSIFYWYAMGWYRQAPGKERELVAAISSSNDSTDYADSVKGRFTISRDNAKNTVYLQMNSLKPEDTAVYYCAALYGTIQYDYWGQGTQVTVSS,low polyreactivity
20,QVQLVESGGGLVQAGGSLRLSCAAYGSIYSKYAMGWYRQAPGKEREMDAAISWSDGTTYYADSVKGLFTISRDNAKYTVYLQLNSLKPEDTAVYYCNTPPQWLGRYITITFDYWGQGSQVTVSS,low polyreactivity
